In patent US20220412967A1, “METHOD FOR CAPTURING CANDIDATE SUBSTANCE THAT CAN BIND TO COMPLEX OF MR1 PROTEIN AND BETA2 MICROGLOBULIN PROTEIN, METHOD FOR PRODUCING CANDIDATE SUBSTANCE THAT CAN BIND TO COMPLEX OF MR1 PROTEIN AND BETA2 MICROGLOBULIN PROTEIN, AND METHOD FOR PRODUCING LIGAND CANDIDATE SUBSTANCE FOR MAIT CELL” (OSAKA UNIVERSITY, priority 2019, published 2022):

B1: soluble mouse β2 microglobulin protein (other)
b2m: IQKTPQIQVYSRHPPENGKPNILNCYVTQFHPPHIEIQMLKNGKKIPKVEMSDMSFSKDWSFYILAHTEFTPTETDTYACRVKHASMAEPKTVYWDRDM
notes: Recombinant from Escherichia coli; also called soluble mβ2m

What was measured:
[1] = target: T1, complex of soluble mMR1A, soluble mβ2m and Ac6FP (Mus musculus, UniProt Q8HWB0); assay: Thermodynamic stability of the complex (Tycho NT.6, F350/F330, 37 to 95° C.); assay type: physicochemical; details: for melting point (inflection point of curve) of the complex: FIG. 1B
T1 construct: made in house
T1 sequence (Q8HWB0 19-288, one chain of several): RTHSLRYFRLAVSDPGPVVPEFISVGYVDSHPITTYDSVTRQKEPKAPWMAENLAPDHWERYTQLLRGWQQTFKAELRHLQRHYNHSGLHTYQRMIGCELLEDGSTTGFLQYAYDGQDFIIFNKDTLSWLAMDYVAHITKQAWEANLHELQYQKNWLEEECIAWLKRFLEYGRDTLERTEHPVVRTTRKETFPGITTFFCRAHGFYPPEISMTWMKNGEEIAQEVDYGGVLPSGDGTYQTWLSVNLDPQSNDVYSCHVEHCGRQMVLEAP
Source text: When a MR1 protein, a β2 protein, and Ac6FP form a complex to form a normal folding, tryptophan in the protein can be measured at an absorbance of 330 nm. On the other hand, when the complex is heat treated and the complex is denatured, tryptophan in the protein is exposed by the thermal denaturation, and the tryptophan can be measured at an absorbance of 350 nm.
After mixing the soluble mMR1A and the soluble mβ2m obtained in Example 1 (1), Ac6FP (Cat. No.: 11.418, manufactured by Schircks Laboratories Co., Ltd.) was further added to the obtained mixed solution to form the complex in a buffer solution (reaction system of complex). The composition of the buffer was as follows: 100 mmol/l Tris-HCl (pH 8.1), 2 mmol/l EDTA (pH 8.1), 400 mmol/l L-Arginine, and 5 mol/1 Urea, and the pH was set to 8.1. In the reaction system of 250 ml of complex, the concentration of the soluble mMR1A was 30 μg/ml (total amount: 7.5 mg), the concentration of the soluble mβ2m was 30 μg/ml (total amount: 7.5 mg), and the concentration of Ac6FP was 8 μg/ml (total amount: 2 mg). The reaction temperature of the reaction system of the complex was set at 4° C., and the reaction time was set at 9 hours.
Sodium cyanoborohydride (NaBH3CN) was added to the obtained complex (0.01 mg/ml), so as to have a predetermined concentration (0, 0.005, 0.05, 0.5, or 5 mmol/1) and subjected to the reduction treatment at 4° C. for 5 minutes. Note that the pH in the reaction solution of the reduction reaction was set to about 7.2.
8 to 10 μl of a sample containing the complex after the reduction treatment was collected in a capillary and set to Tycho™ NT.6. The temperature was then increased to 37 to 95° C., and the thermodynamic stability of the complex was calculated from the melting point (an inflection point of curve).
FIGS. 1A and 1B are graphs of the thermodynamic stability of the complex. In FIGS. 1A and 1B, the horizontal axis indicates the temperature, and the vertical axis indicates the ratio of the absorbance at 350 nm (F350) to the absorbance at 330 nm (F330) (F350/F330). […]

[2] = target: T2, soluble murine MR1 protein isoform A (mouse, UniProt Q8HWB0 19-288); assay: refolding of E. coli proteins with the small-molecule ligand Ac6FP; complex then purified by anion exchange and gel filtration chromatography
T2 construct: also called soluble mMR1A; mMR1
T2 sequence (Q8HWB0 19-288): as the sequence (Q8HWB0 19-288, one chain of several) above
Protocol: After the dialysis, the obtained sample was subjected to anion exchange chromatography under the purification condition 1 below to purify a crude purified product including the complex. After the start of the purification, the resultant was fractionated at 1 ml/fraction, and five fractions between 6 to 7 minutes from the start of purification were collected as fractions of the crude purified product.
Analytical instrument: AKTA pure25 (manufactured by GE Healthcare) Column: POROS™ HQ (manufactured by Applied Biosystems) [0108] […] 0 min: (A:B=100:0) [0111] 7.9 min: (A:B=50:50) Flow rate: 5 ml/min Fractionation volume: 1 ml/fraction
The obtained composition was then subjected to gel filtration chromatography under the purification condition 2 below to purify the complex from the crude purified product. After the start of the purification, the resultant was fractionated at 0.5 ml/fraction, and 4 fractions between 13 and 15 minutes from the start of purification were collected as a fraction containing the complex.

Molecule | melting point (inflection point of curve) of the complex ([1]; control not subjected to the reduction treatment (0 mmol/l NaBH3CN)) | melting point of the complex versus control not subjected to the reduction treatment ([1]; reduction treatment with NaBH3CN (0.005 to 5 mmol/l), FIG. 1A) | melting point (inflection point of curve) of the complex ([1]; treated with 5 mmol/l of sodium cyanoborohydride, 4° C., 5 minutes, pH about 7.2) | binding result [2]
complex: complex formed from soluble mMR1A (SEQ ID NO: 10), soluble mβ2m (SEQ ID NO: 14) and the ligand Ac6FP | 72.2 °C | increased | 73.9 °C | 
B1 |  |  |  | binds
